From US11506662B2, “Detection, identification, and purification of degradative and non-degradative enzymes in biological samples” (The Regents of the University of California, priority 2016, dated 2022)
Starred links: 1 amine or outer side, 2 acyl side, 3 side chain; linkers in the order of their positions; H or OH if unused. Non-standard residues stand in square brackets, D forms with d. *: point of attachment. BFL = BODIPY FL (diaminoethyl-BODIPY FL label), CC1=CC(C)=[N+]2C1=Cc1ccc(CCC(=O)NCCN*)n1[B-]2(F)F; diaminoethyl = diaminoethyl linker to BODIPY FL label; Suc = O=C(CCC(=O)[*:2])[*:1]; Cy5 = Cy5 fluorescent dye; Nle = CCCC[C@H](N)C(=O)O

Experiments:
Format in all cases: biochemical
thrombin [1] = target: T1, thrombin (Homo sapiens, UniProt P00734); assay: Coagulation monitoring: thrombin activity in whole blood of subjects taking anticoagulant vs control
T1 construct: from tissue; host or cells: whole blood of subjects
Protocol: To detect thrombin activity and monitor coagulation, the thrombin targeted charge-changing peptide shown in FIG. 9 (and with the sequence of Ac-N-D^−-D^−-Nle-T-P-R^+//G-S-A-G-A-G-A-G-diamino-ethyl-BFL (SEQ ID NO:1)) was incubated in a drop of whole blood from subjects taking an anticoagulant (aspirin) and from control subjects that were not taking an anticoagulant. Fluorescence signal, indicating specific binding of the peptide to thrombin in the whole blood sample, was measured at various time points up to 30 minutes.

thrombin [2] = target: T1, thrombin; assay: Thrombin detection using thrombin-specific charge-changing peptide substrate in 1×PBS or citrated blood; settings: 0-100 nM
Protocol: Various concentrations (0 nM, 0.5 nM, 5 nM, 10 nM, 20 nM, or 100 nM) of the thrombin targeted charge-changing peptide shown in FIG. 9 (and with the sequence Ac-N-D^−-D^−-Nle-T-P-R^+//G-S-A-G-A-G-A-G-diamino-ethyl-BFL (SEQ ID NO:1)) was incubated in either 1×PBS (FIG. 10A) or citrated blood (FIG. 10B), both of which contained thrombin. After incubation, fluorescence was measured, indicating specific binding of the peptide to the thrombin in the sample.

thrombin [3] = target: T1, thrombin; assay: Whole blood thrombin detection with charge-changing peptide; settings: untreated whole blood
Protocol: The thrombin targeted charge-changing peptide shown in FIG. 9 (and with the sequence Ac-N-D^−-D^−-Nle-T-P-R^+//G-S-A-G-A-G-A-G-diamino-ethyl-BFL (SEQ ID NO:1)) was incubated in untreated whole blood for up to 33 minutes. A negative control was also prepared See FIG. 11A. Fluorescence was measured at 3 minute intervals during incubation.

cathepsin-S = cathepsin-S (Homo sapiens, UniProt P25774); assay: Cathepsin-S detection in buffer with charge-changing peptide; settings: 1×PBS buffer with varying concentrations of cathepsin-S
cathepsin-S, sequence (P25774 115-331, species assumed): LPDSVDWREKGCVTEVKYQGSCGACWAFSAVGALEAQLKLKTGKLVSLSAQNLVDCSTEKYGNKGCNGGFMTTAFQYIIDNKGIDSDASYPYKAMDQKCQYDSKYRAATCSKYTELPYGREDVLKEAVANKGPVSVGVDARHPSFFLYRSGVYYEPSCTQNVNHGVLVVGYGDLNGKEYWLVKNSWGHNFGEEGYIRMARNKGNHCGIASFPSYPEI
Protocol: The cathepsin-S targeted charge-changing peptide shown in FIG. 9 (and with the sequence N-SUC^−-E^−-G-R^+-W-H-T-V-G//L-R^+-W-E^−-C(Cy5^−)-R^+CO-NH2 (SEQ ID NO:5)) was incubated in 1×PBS buffer with varying concentrations of cathepsin-S. After incubation, fluorescence was measured, indicating specific binding of the peptide to the cathepsin-S in the sample.

CC(=O)Oc1ccccc1C(=O)O [aspirin, reference compound]
Rate of fluorescence increase (thrombin activity), anticoagulant subjects vs control (thrombin [1]; whole blood from subjects taking aspirin vs subjects not taking an anticoagulant, up to 30 minutes): more quickly in the control group

Ac-N-D^−-D^−-Nle-T-P-R^+//G-S-A-G-A-G-A-G-diamino-ethyl-BFL (Ac-NDD[Nle]TPRGSAGAGAG-{diaminoethyl-BFL}) [SEQ ID NO:1, thrombin targeted charge-changing fluorescent peptide substrate]
Fluorescence after incubation (thrombin [2]; 1×PBS containing thrombin): Fluorescence increased with increasing thrombin concentration | Fluorescence after incubation (thrombin [2]; citrated blood containing thrombin): Fluorescence increased with increasing thrombin concentration | Fluorescence signal (thrombin activity) over time (thrombin [1]; drop of whole blood, time points up to 30 minutes, both subject groups): increased in both subject groups over time | Time of peak fluorescence values (thrombin [3]; incubation up to 33 minutes): about 18 minutes | Fluorescence signal during incubation (thrombin [3]; up to 33 minutes, measured at 3 minute intervals): increased over time

N-SUC^−-E^−G-R^+-W-H-T-V-G//L-R^+-W-E^−-C(Cy5^−)-R^+-CO-NH2 (Suc-EGRWHTVGLRWEC(Cy5)R-NH2) [SEQ ID NO:5, cathepsin-S targeted charge-changing fluorescent peptide substrate]
Fluorescence after incubation (cathepsin-S): Fluorescence increased with increasing cathepsin-S concentration
